Laboratory results taken from patent publication US20220033516A1.
Residue numbers refer to the chain shown, from its start.

B1: MHR0009/CD3 (bispecific antibody, human IgG1, kappa, N297A)
heavy 1: QSLEESGGRLVTPGTPLTLTCKASGFSLSSYAMIWVRQAPGKGLESIGMVYIHSGGTYYASWAKGRFTISKTSTTVDLKITSPTTEDTATYFCARYNGGGSGTDLWGPGTLVTVSSASTKGPSVFPLAPSSRSTSESTAALGCLVKDYFPEPVTVSWNSGALTSGVHTFPAVLQSSGLYSLSSVVTVPSSSLGTKTYTCNVDHKPSNTKVDKRVEPKSCDKTHTCPPCPAPELRRGPKVFLFPPKPKDTLMISRTPEVTCVVVDVSQEDPEVQFNWYVDGVEVHNAKTKPREEQFASTYRVVSVLTVLHQDWLNGKEYKCKVSNKGLPSSIEKTISKAKGQPREPQVYTLPPSREEMTKNQVSLTCLVKGFYPSDIAVEWESNGQPENNYKTTPPYLDSDGSFFLYSKLTVDKSRWQEGNVFSCSVMHEALHNHYTQESLSLSP
light 1: DIVMTQTPSSVSEPVGGTVTIKCQASQSIYSYLSWYQQKPGQRPKLLIYYASTLASGVPSRFKGSGSGTQFTLTISDLECADAATYYCQNNYGSDSNIYGIAFGGGTKVEIKRTVAAPSVFIFPPSDEQLKSGTASVVCLLNNFYPREAKVQWKVDNALQSGNSQESVTEQDSKDCTYSLSSTLTLSKADYEKHKVYACEVTHQGLSSPVTKSFNRGEC
heavy 2: QVQLVESGGGVVQPGGSLRLSCAASGFTFSNAWMHWVRQAPGKGLEWVAQIKDKSQNYATYVAESVKGRFTISRADSKNSIYLQMNSLKTEDTAVYYCRYVHYAAGYGVDIWGQGTTVTVSSASTKGPSVFPLAPSSRSTSESTAALGCLVKDYFPEPVTVSWNSGALTSGVHTFPAVLQSSGLYSLSSVVTVPSSSLGTKTYTCNVDHKPSNTKVDKRVEPKSCDKTHTCPPCPAPELRRGPKVFLFPPKPKDTLMISRTPEVTCVVVDVSQEDPEVQFNWYVDGVEVHNAKTKPREEQFASTYRVVSVLTVLHQDWLNGKEYKCKVSNKGLPSSIEKTISKAKGQPREPQVYTLPPSRKEMTKNQVSLTCLVKGFYPSDIAVEWESNGQPENNYKTTPPYLDSDGSFFLYSKLTVDKSRWQEGNVFSCSVMHEALHNHYTQKSLSLSP
light 2: DIVMTQSPLSLPVTPGEPASISCRSSQPLVHSNRNTYLHWYQQKPGQAPRLLIYKVSNRFSGVPDRFSGSGSGTDFTLKISRVEAEDVGVYYCGQGTQVPYTFGQGTKLEIKRTVAAPSVFIFPPSDEQLKSGTASVVCLLNNFYPREAKVQWKVDNALQSGNSQESVTEQDSKDSTYSLSSTLTLSKADYEKHKVYACEVTHQGLSSPVTKSFNRGEC
B2: MHR0010/CD3 (bispecific antibody, human IgG1, kappa, N297A)
heavy 1: QSVEESGGRLVTPGTPLTLTCTVSGFSLSRYAMSWVRQAPGKGLEWIGIIVSSSGSTYYATWATGRFTISKTSTTVDLKITSPTTEDTATYFCARIRGYDNIGYGYPWFYYFNLWGPGTLVTVSSASTKGPSVFPLAPSSRSTSESTAALGCLVKDYFPEPVTVSWNSGALTSGVHTFPAVLQSSGLYSLSSVVTVPSSSLGTKTYTCNVDHKPSNTKVDKRVEPKSCDKTHTCPPCPAPELRRGPKVFLFPPKPKDTLMISRTPEVTCVVVDVSQEDPEVQFNWYVDGVEVHNAKTKPREEQFASTYRVVSVLTVLHQDWLNGKEYKCKVSNKGLPSSIEKTISKAKGQPREPQVYTLPPSREEMTKNQVSLTCLVKGFYPSDIAVEWESNGQPENNYKTTPPYLDSDGSFFLYSKLTVDKSRWQEGNVFSCSVMHEALHNHYTQESLSLSP
light 1: DVVMTQTPASVEAAVGGTVTIKCQASQSISSYLAWYQQKPGQPPKLLIYDASDLASGVPSRFKGSGSGTQFTLTISDLECADAATYYCQSYYYSSSSSYGFAFGGGTKVEIKRTVAAPSVFIFPPSDEQLKSGTASVVCLLNNFYPREAKVQWKVDNALQSGNSQESVTEQDSKDCTYSLSSTLTLSKADYEKHKVYACEVTHQGLSSPVTKSFNRGEC
heavy 2: B1 heavy 2
light 2: B1 light 2
B3: MHR0060/CD3 (bispecific antibody, human IgG1, kappa, N297A)
heavy 1: QSVEESGGRLVTPGTPLTLTCTVSGFSLSSYAMGWVRQAPGKGLEYIGIISSSGSTYYANWAKGRFTISKTSTTVDLKITSPTTEDTATYFCARGVDIYGHPYATPYGMDLWGPGTLVTVSSASTKGPSVFPLAPSSRSTSESTAALGCLVKDYFPEPVTVSWNSGALTSGVHTFPAVLQSSGLYSLSSVVTVPSSSLGTKTYTCNVDHKPSNTKVDKRVEPKSCDKTHTCPPCPAPELRRGPKVFLFPPKPKDTLMISRTPEVTCVVVDVSQEDPEVQFNWYVDGVEVHNAKTKPREEQFASTYRVVSVLTVLHQDWLNGKEYKCKVSNKGLPSSIEKTISKAKGQPREPQVYTLPPSREEMTKNQVSLTCLVKGFYPSDIAVEWESNGQPENNYKTTPPYLDSDGSFFLYSKLTVDKSRWQEGNVFSCSVMHEALHNHYTQESLSLSP
light 1: EVVMTQTPASVEVAVGGTVTIKCQASQSISSYLAWYQQKPGQPPKLLIYYASTLASGVPSRFKGSGSGTEFTLTISDLECDDAATYYCQSNYGSSSSSYEDTFGGGTKVEIKRTVAAPSVFIFPPSDEQLKSGTASVVCLLNNFYPREAKVQWKVDNALQSGNSQESVTEQDSKDCTYSLSSTLTLSKADYEKHKVYACEVTHQGLSSPVTKSFNRGEC
heavy 2: B1 heavy 2
light 2: B1 light 2
B4: MHR0016/CD3 (bispecific antibody, human IgG1, kappa, N297A)
heavy 1: QSVEESGGRLVTPGTPLTLTCTVSGFSLSSNAISWVRQAPGKGLEYIGIISSSGSTYYANWAKGRFTISKTSSTTVDLKMTSATTEDTATYFCARGVDIYGHAYATPYGMDLWGPGTLVTVSSASTKGPSVFPLAPSSRSTSESTAALGCLVKDYFPEPVTVSWNSGALTSGVHTFPAVLQSSGLYSLSSVVTVPSSSLGTKTYTCNVDHKPSNTKVDKRVEPKSCDKTHTCPPCPAPELRRGPKVFLFPPKPKDTLMISRTPEVTCVVVDVSQEDPEVQFNWYVDGVEVHNAKTKPREEQFASTYRVVSVLTVLHQDWLNGKEYKCKVSNKGLPSSIEKTISKAKGQPREPQVYTLPPSREEMTKNQVSLTCLVKGFYPSDIAVEWESNGQPENNYKTTPPYLDSDGSFFLYSKLTVDKSRWQEGNVFSCSVMHEALHNHYTQESLSLSP
light 1: B3 light 1 with E12S, V13E, A14P, A34S, A51S, D81A
heavy 2: B1 heavy 2
light 2: B1 light 2
B5: MHR0019/CD3 (bispecific antibody, human IgG1, kappa, N297A)
heavy 1: B3 heavy 1 with T12A, F26I, S27D, Y31D, G34A, N60S, P102A
light 1: B3 light 1 with E12S, V13E, A14P, A34S
heavy 2: B1 heavy 2
light 2: B1 light 2

The binders below were run against recombinant human HER2 S310F ECD protein (human) (UniProt P04626) (assay: SPR, Biacore 8K, 37 C, antibody captured by anti-human Fc on CM4, antigen as analyte, 1:1 model).

| Binder | Kd [nM] |
| --- | --- |
| B1 | 36.2 |
| B2 | 10.8 |
| B3 | 40.4 |
| B4 | 22.3 |
| B5 | 13.9 |
